Earlier results as cited in paper PMC3981547.
pKd: −log10 of the molar value. Like-named read-outs stand apart in the source and are kept apart here. Each block holds one substance with its values, some of them ahead of it.

Columns and labels:
γc (Homo sapiens) = γc (Homo sapiens) (UniProt P31785)
IL-2Rα (Homo sapiens) = IL-2Rα (Homo sapiens) (UniProt P01589)
IL-2Rβ/γc (Homo sapiens) = IL-2Rβ/γc (Homo sapiens) (UniProt P14784)
IL-2Rβ (Homo sapiens) = IL-2Rβ (Homo sapiens) (UniProt P14784)
[1] = molecular target: IL-4Rα ECD (Homo sapiens) (UniProt P24394); assay: ITC
IL-13Rα1 (Homo sapiens) [2] = molecular target: IL-13Rα1 (Homo sapiens) (UniProt P78552)
IL-13Rα1 (Homo sapiens) [3] = molecular target: IL-13Rα1 (Homo sapiens) (UniProt P78552); remark: listed apart in the source

UniProt P78552, sequence (P78552 22-343): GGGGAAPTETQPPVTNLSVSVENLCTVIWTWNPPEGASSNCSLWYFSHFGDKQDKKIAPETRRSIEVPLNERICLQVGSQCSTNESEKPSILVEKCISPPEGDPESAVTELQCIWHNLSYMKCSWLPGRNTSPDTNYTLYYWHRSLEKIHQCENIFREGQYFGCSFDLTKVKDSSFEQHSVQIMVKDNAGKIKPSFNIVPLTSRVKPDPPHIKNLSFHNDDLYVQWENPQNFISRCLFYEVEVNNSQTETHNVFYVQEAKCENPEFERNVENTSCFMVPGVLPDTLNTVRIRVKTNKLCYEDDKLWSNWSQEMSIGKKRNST
UniProt P24394, sequence (P24394 26-232): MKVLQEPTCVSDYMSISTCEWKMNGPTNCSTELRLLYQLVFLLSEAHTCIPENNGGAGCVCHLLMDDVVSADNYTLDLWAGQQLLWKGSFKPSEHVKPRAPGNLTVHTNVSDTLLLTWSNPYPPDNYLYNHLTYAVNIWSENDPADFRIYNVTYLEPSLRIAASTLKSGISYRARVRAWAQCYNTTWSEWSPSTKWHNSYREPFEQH
UniProt P01589, sequence (P01589 22-240): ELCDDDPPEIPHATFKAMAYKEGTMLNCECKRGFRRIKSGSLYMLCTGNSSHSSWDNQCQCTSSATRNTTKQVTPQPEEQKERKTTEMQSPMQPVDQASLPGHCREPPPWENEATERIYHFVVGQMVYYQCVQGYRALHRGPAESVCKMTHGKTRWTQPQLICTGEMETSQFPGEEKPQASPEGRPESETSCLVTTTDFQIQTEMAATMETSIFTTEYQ
UniProt P31785, sequence (P31785 23-262): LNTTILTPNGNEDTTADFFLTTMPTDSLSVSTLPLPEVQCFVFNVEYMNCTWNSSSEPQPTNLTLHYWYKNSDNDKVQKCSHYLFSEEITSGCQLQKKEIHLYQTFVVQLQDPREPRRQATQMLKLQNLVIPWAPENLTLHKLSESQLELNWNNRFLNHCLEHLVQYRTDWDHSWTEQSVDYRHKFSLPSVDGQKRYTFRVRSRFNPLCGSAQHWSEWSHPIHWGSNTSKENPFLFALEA

pKd (γc (Homo sapiens)): 3.15 | pKd (IL-2Rα (Homo sapiens)): 8.00 | pKd (IL-2Rβ/γc (Homo sapiens)): 9.00 | pKd (IL-2Rβ (Homo sapiens)): 7.00
Substance: IL-2 (from UniProt P60568)

pKd [1]: 9.00
Substance: IL-4 (from UniProt P05112)

pKd (IL-13Rα1 (Homo sapiens) [2]): 6.31
Substance: IL-4/IL-4Rα (from UniProt P05112)

pKd (IL-13Rα1 (Homo sapiens) [3]): 7.52
Substance: IL-13 (from UniProt P35225)
